We go through three molecules from article PMC5829645.

The target in data set [1] is T1, BmILF (interleukin enhancer binding factor homolog) (Bombyx mori (Bm12 cell cDNA), UniProt A0A1U9WZ16 1-382).
T1 sequence: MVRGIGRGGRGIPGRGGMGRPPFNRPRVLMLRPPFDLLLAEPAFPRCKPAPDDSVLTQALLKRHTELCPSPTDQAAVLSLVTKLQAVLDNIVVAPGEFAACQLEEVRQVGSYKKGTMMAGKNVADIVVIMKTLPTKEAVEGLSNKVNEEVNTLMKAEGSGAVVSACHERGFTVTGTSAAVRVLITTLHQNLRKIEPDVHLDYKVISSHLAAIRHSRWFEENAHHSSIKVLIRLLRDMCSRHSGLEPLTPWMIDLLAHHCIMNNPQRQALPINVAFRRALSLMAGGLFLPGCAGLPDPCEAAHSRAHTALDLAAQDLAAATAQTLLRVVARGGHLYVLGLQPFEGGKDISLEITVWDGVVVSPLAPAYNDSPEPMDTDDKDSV
The data set is described as follows: EMSA. (In general: A gel shift assay detects complexes by their altered migration in electrophoresis.)

The target of data set [2] is T1, BmILF (interleukin enhancer binding …). The data set is described as follows: EMSA. This is another data set of the same source.
The target is the same in data set [3]. Put plainly: competition.

Consider TTGTTGCACTGCTACTCGGCTCACTCGCGCATCGCACTGG (ssDNA) [BmPOUM2 i-motif mutant probe], for which the binding result in data set [1] was “no binding”.
On to TTGTTGCCCCGCCCCTCGGCCCCCTCGCGCCCCGCACTGG (structured_DNA) [BmPOUM2 i-motif wild-type probe], for which the binding result in data set [2] was “binds”.
With TTGTTGCCCCGCCCCTCGGCCCCCTCGCGCCCCGCACTGG (structured_DNA) [unlabeled wild-type i-motif cold probe], in data set [3], the binding result was “binds”.
